Data reported in US20200199204A1 (UNITED STATES OF AMERICA AS REPRESENTED BY THE SECRETARY …, published 2020).

B1: CAP256-VRC26.12 (antibody, V domains shown)
VH: EVQLVQSGGGVVQPGRSLRLSCAAPYFEFGRYGFHWVRQAPGKGLEWVASISFAGRDYYHSPSVWGRFTISRDNSKNTLYLQMNSLRIEDTALYFCARDLRESECEEWESDYYDFGKKGPCVKPRGVAGGLDLWGQGTMVIVSS
VL: QSVLTQPPSVSTAPGQTVTVSCSGGTSNTGNNFVSWYQHLPGTAPKLLIYENNKRPLGVPDRFSGAKSGTSATLAITGLQTGDEGDYYCATWSGSLNIGTGTKVSVLG
B2: CAP256-VRC26.10 (antibody, V domains shown)
VH: QAILVESGGGVVQPGRSLRLSCAASQFTFSGHGLHWVRQAPGKGLEWVASISFAGTKMDYADSVKGRFAISRDNSKNTLYLQMNSLRVEDTALYYCAKDMREYECEYWTSDYYDFGRPQPCIDRRGVVGIFDMWGQGTMVTVST
VL: QSVLTQPPSVSAAPGQKVTISCSGSSSNIGDNYVSWYQHLPGTAPKLLIYENTRRPSGIPDRFSGSKSGTSATLAITGLQTGDEADYYCGTWDVRPNRGAVFGTGTKVTVLG

The binders below were run against HIV-1 Env of C1080.c3 (HIV-1) (assay: cell-based or functional assay).
With B1 the “neutralization IC50” value was > 50 µg/mL. B2 was tested, and the “neutralization IC50” value was > 50 µg/mL.

The binders below were run against HIV-1 Env of DU156.12 (HIV-1) (assay: cell-based or functional assay).
In the case of B1, the “neutralization IC50” value is reported as > 50 µg/mL. With B2 the “neutralization IC50” value was > 50 µg/mL.

These binders were tested against HIV-1 Env of CAP256.PI (HIV-1) (assay: cell-based or functional assay).
B1 was tested, and the “neutralization IC50” value was > 50 µg/mL. With B2 the “neutralization IC50” value was > 50 µg/mL.

The binders below were run against HIV-1 Env of 96ZM651.02 (HIV-1) (assay: cell-based or functional assay).
For B1, the “neutralization IC50” value was > 50 µg/mL. B2 was tested, and the “neutralization IC50” value was > 50 µg/mL.

The binders below were run against HIV-1 Env of CAP210.E8 (HIV-1) (assay: cell-based or functional assay).
In the case of B1, the “neutralization IC50” value is reported as 0.072 µg/mL. For B2, the “neutralization IC50” value was 0.1 µg/mL.

Each binder was assayed against HIV-1 Env of AC10.29 (HIV-1) (assay: cell-based or functional assay).
For B1, the “neutralization IC50” value was > 50 µg/mL. With B2 the “neutralization IC50” value was > 50 µg/mL.

What follows are binders tested against HIV-1 Env of RW020.2 (HIV-1) (assay: cell-based or functional assay).
In the case of B1, the “neutralization IC50” value is reported as > 50 µg/mL. With B2 the “neutralization IC50” value was > 50 µg/mL.

Each binder was assayed against HIV-1 Env of ZM233.6 (HIV-1) (assay: cell-based or functional assay).
B1 was tested, and the “neutralization IC50” value was > 50 µg/mL. B2 was tested, and the “neutralization IC50” value was 0.228 µg/mL.

What follows are binders tested against HIV-1 Env of MB201 (HIV-1) (assay: cell-based or functional assay).
In the case of B1, the “neutralization IC50” value is reported as > 50 µg/mL. B2 was tested, and the “neutralization IC50” value was > 50 µg/mL.

Each binder was assayed against HIV-1 Env of THRO.18 (HIV-1) (assay: cell-based or functional assay).
For B1, the “neutralization IC50” value was > 50 µg/mL. In the case of B2, the “neutralization IC50” value is reported as > 50 µg/mL.

Each binder was assayed against HIV-1 Env of SC422.8 (HIV-1) (assay: cell-based or functional assay).
For B1, the “neutralization IC50” value was > 50 µg/mL. In the case of B2, the “neutralization IC50” value is reported as > 50 µg/mL.

These binders were tested against HIV-1 Env of ZM53.12 (HIV-1) (assay: cell-based or functional assay).
B1 was tested, and the “neutralization IC50” value was 0.211 µg/mL. With B2 the “neutralization IC50” value was 0.072 µg/mL.

Each binder was assayed against HIV-1 Env of Q842.d12 (HIV-1) (assay: cell-based or functional assay).
For B1, the “neutralization IC50” value was > 50 µg/mL. In the case of B2, the “neutralization IC50” value is reported as > 50 µg/mL.

Each binder was assayed against HIV-1 Env of CAP45.G3 (HIV-1) (assay: cell-based or functional assay).
In the case of B1, the “neutralization IC50” value is reported as > 50 µg/mL. In the case of B2, the “neutralization IC50” value is reported as > 50 µg/mL.

What follows are binders tested against HIV-1 Env of BG505.w6m (HIV-1) (assay: cell-based or functional assay).
For B1, the “neutralization IC50” value was > 50 µg/mL. In the case of B2, the “neutralization IC50” value is reported as > 50 µg/mL.

The binders below were run against HIV-1 Env of ZM249.1 (HIV-1) (assay: cell-based or functional assay).
For B1, the “neutralization IC50” value was > 50 µg/mL. In the case of B2, the “neutralization IC50” value is reported as > 50 µg/mL.

Each binder was assayed against HIV-1 Env of RHPA.7 (HIV-1) (assay: cell-based or functional assay).
For B1, the “neutralization IC50” value was > 50 µg/mL. For B2, the “neutralization IC50” value was > 50 µg/mL.

These binders were tested against HIV-1 Env of Q461.e2 (HIV-1) (assay: cell-based or functional assay).
With B1 the “neutralization IC50” value was > 50 µg/mL. B2 was tested, and the “neutralization IC50” value was > 50 µg/mL.

Each binder was assayed against HIV-1 Env of 191821.E6.1 (HIV-1) (assay: cell-based or functional assay).
With B1 the “neutralization IC50” value was > 50 µg/mL. In the case of B2, the “neutralization IC50” value is reported as > 50 µg/mL.

What follows are binders tested against HIV-1 Env of CAP256.SU (HIV-1) (assay: cell-based or functional assay).
With B1 the “neutralization IC50” value was 0.032 µg/mL. For B2, the “neutralization IC50” value was 0.031 µg/mL.

The binders below were run against HIV-1 Env of Q168.a2 (HIV-1) (assay: cell-based or functional assay).
B1 was tested, and the “neutralization IC50” value was > 50 µg/mL. With B2 the “neutralization IC50” value was > 50 µg/mL.

The binders below were run against HIV-1 Env of ZM197.7 (HIV-1) (assay: cell-based or functional assay).
With B1 the “neutralization IC50” value was > 50 µg/mL. B2 was tested, and the “neutralization IC50” value was 0.346 µg/mL.

These binders were tested against HIV-1 Env of KER2018.11 (HIV-1) (assay: cell-based or functional assay).
In the case of B1, the “neutralization IC50” value is reported as > 50 µg/mL. B2 was tested, and the “neutralization IC50” value was 0.335 µg/mL.

The binders below were run against HIV-1 Env of TRJO.58 (HIV-1) (assay: cell-based or functional assay).
With B1 the “neutralization IC50” value was > 50 µg/mL. B2 was tested, and the “neutralization IC50” value was > 50 µg/mL.

These binders were tested against HIV-1 Env of ZM135.10a (HIV-1) (assay: cell-based or functional assay).
B1 was tested, and the “neutralization IC50” value was > 50 µg/mL. In the case of B2, the “neutralization IC50” value is reported as > 50 µg/mL.

What follows are binders tested against HIV-1 Env of UG037.8 (HIV-1) (assay: cell-based or functional assay).
With B1 the “neutralization IC50” value was > 50 µg/mL. For B2, the “neutralization IC50” value was > 50 µg/mL.

The binders below were run against HIV-1 Env of DU422.01 (HIV-1) (assay: cell-based or functional assay).
B1 was tested, and the “neutralization IC50” value was > 50 µg/mL. B2 was tested, and the “neutralization IC50” value was 8.2 µg/mL.

The binders below were run against HIV-1 Env of 6405.v4.c34 (HIV-1) (assay: cell-based or functional assay).
With B1 the “neutralization IC50” value was > 50 µg/mL. With B2 the “neutralization IC50” value was > 50 µg/mL.

What follows are binders tested against HIV-1 Env of Q769.d22 (HIV-1) (assay: cell-based or functional assay).
For B1, the “neutralization IC50” value was > 50 µg/mL. For B2, the “neutralization IC50” value was > 50 µg/mL.

The binders below were run against HIV-1 Env of 6535.3 (HIV-1) (assay: cell-based or functional assay).
With B1 the “neutralization IC50” value was > 50 µg/mL. For B2, the “neutralization IC50” value was > 50 µg/mL.

These binders were tested against HIV-1 Env of 0260.v5.c36 (HIV-1) (assay: cell-based or functional assay).
With B1 the “neutralization IC50” value was > 50 µg/mL. For B2, the “neutralization IC50” value was > 50 µg/mL.

What follows are binders tested against HIV-1 Env of ZM109.4 (HIV-1) (assay: cell-based or functional assay).
For B1, the “neutralization IC50” value was > 50 µg/mL. In the case of B2, the “neutralization IC50” value is reported as > 50 µg/mL.

What follows are binders tested against HIV-1 Env of TRO.11 (HIV-1) (assay: cell-based or functional assay).
In the case of B1, the “neutralization IC50” value is reported as > 50 µg/mL. In the case of B2, the “neutralization IC50” value is reported as > 50 µg/mL.

The binders below were run against HIV-1 Env of CAAN.A2 (HIV-1) (assay: cell-based or functional assay).
In the case of B1, the “neutralization IC50” value is reported as > 50 µg/mL. For B2, the “neutralization IC50” value was > 50 µg/mL.

These binders were tested against HIV-1 Env of ZM214.15 (HIV-1) (assay: cell-based or functional assay).
For B1, the “neutralization IC50” value was > 50 µg/mL. For B2, the “neutralization IC50” value was > 50 µg/mL.

Each binder was assayed against HIV-1 Env of DU172.17 (HIV-1) (assay: cell-based or functional assay).
In the case of B1, the “neutralization IC50” value is reported as > 50 µg/mL. With B2 the “neutralization IC50” value was > 50 µg/mL.

The binders below were run against HIV-1 Env of KER2008.12 (HIV-1) (assay: cell-based or functional assay).
B1 was tested, and the “neutralization IC50” value was > 50 µg/mL. B2 was tested, and the “neutralization IC50” value was > 50 µg/mL.

The binders below were run against HIV-1 Env of CM244.ec1 (HIV-1) (assay: cell-based or functional assay).
For B1, the “neutralization IC50” value was > 50 µg/mL. In the case of B2, the “neutralization IC50” value is reported as 0.914 µg/mL.

The binders below were run against HIV-1 Env of MB539.2B7 (HIV-1) (assay: cell-based or functional assay).
For B1, the “neutralization IC50” value was > 50 µg/mL. With B2 the “neutralization IC50” value was > 50 µg/mL.

The binders below were run against HIV-1 Env of Q23.17 (HIV-1) (assay: cell-based or functional assay).
For B1, the “neutralization IC50” value was > 50 µg/mL. For B2, the “neutralization IC50” value was 2.59 µg/mL.

The binders below were run against HIV-1 Env of WITO.33 (HIV-1) (assay: cell-based or functional assay).
In the case of B1, the “neutralization IC50” value is reported as > 50 µg/mL. For B2, the “neutralization IC50” value was > 50 µg/mL.

The binders below were run against HIV-1 Env of 3016.V5.c36 (HIV-1) (assay: cell-based or functional assay).
With B1 the “neutralization IC50” value was 7.93 µg/mL. B2 was tested, and the “neutralization IC50” value was 0.017 µg/mL.

Each binder was assayed against HIV-1 Env of Q259.d2.17 (HIV-1) (assay: cell-based or functional assay).
B1 was tested, and the “neutralization IC50” value was > 50 µg/mL. B2 was tested, and the “neutralization IC50” value was 24.6 µg/mL.

The binders below were run against HIV-1 Env of REJO.67 (HIV-1) (assay: cell-based or functional assay).
B1 was tested, and the “neutralization IC50” value was > 50 µg/mL. For B2, the “neutralization IC50” value was > 50 µg/mL.

Each binder was assayed against HIV-1 Env of QH0692.42 (HIV-1) (assay: cell-based or functional assay).
In the case of B1, the “neutralization IC50” value is reported as > 50 µg/mL. In the case of B2, the “neutralization IC50” value is reported as > 50 µg/mL.

These binders were tested against HIV-1 Env of CAP244.D3 (HIV-1) (assay: cell-based or functional assay).
B1 was tested, and the “neutralization IC50” value was > 50 µg/mL. With B2 the “neutralization IC50” value was > 50 µg/mL.

These binders were tested against HIV-1 Env of PVO.04 (HIV-1) (assay: cell-based or functional assay).
In the case of B1, the “neutralization IC50” value is reported as > 50 µg/mL. For B2, the “neutralization IC50” value was 2.48 µg/mL.
